# Literature values in publication PMC4754043 (Human Molecular Genetics, 2015).
# B1: mt-ValRS: mt-valyl-tRNA synthetase (protein, UniProt Q5ST30 27-1063, looked up)
# Valine--tRNA ligase, …: SVSTQSEPHGSPISRRNREAKQKRLREKQATLEAEIAGESKSPAESIKAWRPKELVLYEIPTKPGEKKDVSGPLPPAYSPRYVEAAWYPWWVREGFFKPEYQARLPQATGETFSMCIPPPNVTGSLHIGHALTVAIQDALVRWHRMRGDQVLWVPGSDHAGIATQAVVEKQLWKERGVRRHELSREAFLREVWQWKEAKGGEICEQLRALGASLDWDRECFTMDVGSSVAVTEAFVRLYKAGLLYRNHQLVNWSCALRSAISDIEVENRPLPGHTQLRLPGCPTPVSFGLLFSVAFPVDGEPDAEVVVGTTRPETLPGDVAVAVHPDDSRYTHLHGRQLRHPLMGQPLPLITDYAVQPHVGTGAVKVTPAHSPADAEMGARHGLSPLNVIAEDGTMTSLCGDWLQGLHRFVAREKIMSVLSEWGLFRGLQNHPMVLPICSRSGDVIEYLLKNQWFVRCQEMGARAAKAVESGALELSPSFHQKNWQHWFSHIGDWCVSRQLWWGHQIPAYLVVEDHAQGEEDCWVVGRSEAEAREVAAELTGRPGAELTLERDPDVLDTWFSSALFPFSALGWPQETPDLARFYPLSLLETGSDLLLFWVGRMVMLGTQLTGQLPFSKVLLHPMVRDRQGRKMSKSLGNVLDPRDIISGVEMQVLQEKLRSGNLDPAELAIVAAAQKKDFPHGIPECGTDALRFTLCSHGVQAGDLHLSVSEVQSCRHFCNKIWNALRFILNALGEKFVPQPAEELSPSSPMDAWILSRLALAAQECERGFLTRELSLVTHALHHFWLHNLCDVYLEAVKPVLWHSPRPLGPPQVLFSCADLGLRLLAPLMPFLAEELWQRLPPRPGCPPAPSISVAPYPSACSLEHWRQPELERRFSRVQEVVQVLRALRATYQLTKARPRVLLQSSEPGDQGLFEAFLEPLGTLGYCGAVGLLPPGAAAPSGWAQAPLSDTAQVYMELQGLVDPQIQLPLLAARRYKLQKQLDSLTARTPSEGEAGTQRQQKLSSLQLELSKLDKAASHLRQLMDEPPAPGSPEL
# Tested on: human transmitochondrial cybrid cells and yeast with mt-tRNA mutations
# Settings: human cybrids and yeast; ref [9],[10],[11]
molecule,measurement,value
B1,rescue of defects due to mutations in non-cognate as well as cognate mt-tRNAs,able to rescue
